# ± gives the standard deviation of the averaged measurements.
# System: ATP
# Assay: switch fluorescence ratio, 500 uM ATP over buffer (Cy3 cluster intensity, sum of 5 cycles each) (fold (ratio)); higher = stronger signal-on switching upon ATP binding; sequences stand for … in TCGTCGGCAGCGTCAGATGTGTATAAGAGACAGTTTTTTTTTTTTTTTTTTTTTTTTT…TC
# Conditions: aptamer strand: ATP DNA aptamer (quencher-CACCTGGGGGAGTATTGCGGAGGAAGG + anchor), 100 nM annealed; ATP concentration: 500 uM
# Procedure, shortened: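 Values give the fluorescence ratio for each switch-domain sequence, averaged from per-cluster ratios of summed target-cycle to summed buffer-cycle Cy3 intensity. The Cy3-labelled switching-strand clusters sat on a modified Illumina MiSeq flow-cell, were annealed to 100 nM quencher-labelled ATP aptamer, and were imaged in selection buffer, then after 15 min with 500 uM ATP at 22 °C. Five cycles ran with NaOH stripping and re-annealing between them, and clusters outside 100-1000 RFU were excluded.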
# 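Note: ATP exposure 15 min at 22 °C before imaging.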
row,Sequence,switch fluorescence ratio
1,GCTCCGTGGG,1.93 ± 0.1
2,GCTCCTGTTA,1.11 ± 0.027
3,GCTCGAGATT,1.026 ± 0.0027
4,GCTCGCACAG,1.321 ± 0.0081
5,GCTCGGGGTG,0.986 ± 0.032
6,GCTCGTACGT,1.01 ± 0.031
7,GCTCGTCGGC,0.9987 ± 0.0018
8,GCTCGTTAAA,1.04 ± 0.1
9,GCTCGTTTGG,0.9745 ± 0.0041
10,GCTCGTTTTG,0.981 ± 0.043
11,GCTCTAGTGG,1.01 ± 0.022
12,GCTCTATAAT,1.03 ± 0.0044
13,GCTCTATGAC,1.08 ± 0.044
14,GCTCTCACTT,1.02 ± 0.043
15,GCTCTGAGCT,1.05 ± 0.086
16,GCTCTGGGGA,1.07 ± 0.12
17,GCTCTGGGGT,1.02 ± 0.033
18,GCTCTTAGCG,1.03 ± 0.054
19,GCTCTTGTCT,0.985 ± 0.061
20,GCTCTTGTTC,0.9975 ± 0.0083
21,GCTGAAAAGA,0.97 ± 0.032
22,GCTGAAAGGC,1.09 ± 0.061
23,GCTGAAAGGG,0.9903 ± 0.0067
24,GCTGAAGTTC,0.993 ± 0.025
25,GCTGACGGGA,1.1 ± 0.015

row,Sequence,switch fluorescence ratio
1,GCTGAGGCTG,1 ± 0.032
2,GCTGAGGGAA,1.01 ± 0.028
3,GCTGATAACG,1.01 ± 0.035
4,GCTGATTTAT,0.982 ± 0.018
5,GCTGCGAATT,1.021 ± 0.01
6,GCTGCGGCAG,1.012 ± 0.0046
7,GCTGCGGGCT,1.18 ± 0.24
8,GCTGCTGGTA,1.02 ± 0.024
9,GCTGCTGTTT,1.01 ± 0.0037
10,GCTGCTTGCG,1 ± 0.014
11,GCTGGAAAAT,1 ± 0.013
12,GCTGGACGTG,0.9912 ± 0.0055
13,GCTGGGGACT,0.996 ± 0.02
14,GCTGGGGCAG,1.016 ± 0.01
15,GCTGGGGGCC,0.981 ± 0.028
16,GCTGGGGGGG,1.02 ± 0.037
17,GCTGGTCATG,0.989 ± 0.018
18,GCTGGTGCGA,1.005 ± 0.0099
19,GCTGGTGCTT,0.974 ± 0.022
20,GCTGGTTGA,1.01 ± 0.014
21,GCTGTCCGGA,1.048 ± 0.0054
22,GCTGTGATA,0.976 ± 0.019
23,GCTGTGCACG,1.02 ± 0.02
24,GCTGTGCGGG,0.95 ± 0.018
25,GCTGTGGGCA,0.977 ± 0.02

row,Sequence,switch fluorescence ratio
1,GCTGTGTAGG,0.994 ± 0.013
2,GCTGTTGCTG,1 ± 0.035
3,GCTTAAATCT,1.01 ± 0.029
4,GCTTAATACT,1.37 ± 0.054
5,GCTTACGGGA,1.028 ± 0.0016
6,GCTTAGAGGA,1 ± 0.03
7,GCTTATCTTT,0.978 ± 0.051
8,GCTTATGAAG,1.02 ± 0.02
9,GCTTATTATT,1.023 ± 0.0026
10,GCTTCAAGGC,1.03 ± 0.045
11,GCTTCAATGT,1.03 ± 0.067
12,GCTTCCTGTG,1.49 ± 0.036
13,GCTTCGGAGA,1.029 ± 0.0017
14,GCTTCTAGCT,0.969 ± 0.011
15,GCTTCTGGCA,0.999 ± 0.023
16,GCTTGAGGCT,0.959 ± 0.06
17,GCTTGCTCAT,1.018 ± 0.0094
18,GCTTGGAAGC,0.9909 ± 0.0089
19,GCTTGTACGT,1.021 ± 0.0096
20,GCTTGTAGCT,1.02 ± 0.0095
21,GCTTGTAGGC,0.994 ± 0.017
22,GCTTGTAGGG,0.969 ± 0.011
23,GCTTGTATGA,1.013 ± 0.0032
24,GCTTGTTGTA,0.998 ± 0.015
25,GCTTTAACAC,1.03 ± 0.014

row,Sequence,switch fluorescence ratio
1,GCTTTATTAA,1 ± 0.017
2,GCTTTATTTT,1.09 ± 0.19
3,GCTTTCTGCG,1.05 ± 0.042
4,GCTTTGAATT,0.985 ± 0.017
5,GCTTTGCGCT,0.988 ± 0.015
6,GCTTTGGGGA,1 ± 0.025
7,GCTTTGTTTT,1.12 ± 0.3
8,GCTTTTAGTG,1 ± 0.039
9,GCTTTTGGGC,0.963 ± 0.023
10,GCTTTTTAAA,0.95 ± 0.016
11,GCTTTTTGGG,0.963 ± 0.039
12,GCTTTTTTGA,0.993 ± 0.042
13,GGAAAAATCG,1.013 ± 0.0051
14,GGAAAAATGA,1 ± 0.034
15,GGAAAAATGT,1.01 ± 0.025
16,GGAAAACCAG,0.982 ± 0.048
17,GGAAAAGTTC,1 ± 0.058
18,GGAAACCATT,1.03 ± 0.024
19,GGAAACTTTG,1.04 ± 0.11
20,GGAAAGACGA,1.01 ± 0.016
21,GGAAAGGTTT,1.01 ± 0.064
22,GGAAAGTGAT,1.2 ± 0.26
23,GGAAATTGTA,0.986 ± 0.0059
24,GGAACAGCTT,0.983 ± 0.017
25,GGAACGTATT,1.0119 ± 8.1e-05

# — the supplement of paper PMC10126150
